Assay results from patent US8357523B2, “Beta-glucosidase variant enzymes and related polynucleotides” (Codexis, Inc., priority 2009, dated 2013).

Assay: High throughput cellobiose assay: fold improvement in cellobiase activity of CelA variants over a control enzyme (Tables 2A-2D, 3, 5, 6, 7)
Type: biochemical
Conditions: 3.3 g/l cellobiose, 55° C. and pH 6.0

| Molecule | Fold improvement over Control Variant No. 5 from Table 2A |
| --- | --- |
| 87 (protein) STAIAQEGAAPAAILHPEKWPRPATQRLIDPAVEKRVDALLKQLSVEEKVGQVIQGDIGTITPEDLRKYPLGSILAGGDSGPNGDDRAPPKEWLDLADAFYRVSLEKRPGHTPIPVLFGIDAVHGHGNIGSATIFPHNIALGMTRDPELLRRIGEVTAVEMAATGIDWTFAPALSVVRDDRWGRTYEGFSEDPEIVASYSAAIVEGVQGKYGSKDFMAPGRIVASAKHFLADGGTDQGRDQGDARISEDELIRIHNAGYPPAIDAGVLTVMASFSSWQGIKHHGHKQLLTDVLKGQMGFNGFIVGDWNAHDQVPGCTKFNCPTSLIAGLDMYMAADSWKQLYENTLAQVKDGTIPMARLDDAVRRILRVKVLAGLFEKPAPKDRPGLPGLETLGSPEHRAVGREAVRKSLVLLKNDKGTLPLSPKARVLVAGDGADNIGKQSGGWTISWQGTGNRNDEFPGATSILGGIRDAVADAGGSVEFDVAGQYKTKPDVAIVVFGEEPYAEFQGDVETLEYQPDQKQDLALLKKLKDQGIPVVAVFLSGRPMWVNPELNASDAFVAAWLPGTEGGGVADVLFTDKAGKVQHDFAGKLSYSWPRTAAQTTVNRGDADYNPLFAYGYGLTYKDKSKVGTLPEESGVPAEARQNAGIYFRAGALRLPGRFL | +++ (+++ = 6 to 13 fold improvement over control Variant No. 2) |
| 88 (protein) STAIAQEGAAPAAILHPEKWPRPATQRLIDPAVEKRVDALLKQLSVEEKVGQVIQGDIGTITPEDLRKYPLGSILAGGDSGPNGDDRAPPKEWLDLADAFYRVSLEKRPGHTPIPVLFGIDAVHGHGNIGSATIFPHNIALGATRDPELLRRIGEVTAVEMAATGIDWTFAPALSVVRDDRWGRTYEGFSEDPEIVAAYSAAIVEGVQGKFGSKDFMAPGRIVASAKHFLADGGTDQGRDQGDARISEDELIRIHNAGYPPAIDAGVLTVMASFSSWQGIKHHGHKQLLTDVLKGQMGFNGFIVGDWNAHDQVPGCTKFNCPTSLIAGLDMYMAADSWKQLYENTLAQVKDGTIPMARLDDAVRRILRVKVLAGLFEKPAPKDRPGLPGLETLGSPEHRAVGREAVRKSLVLLKNDKGTLPLSPKARVLVAGDGADNIGKQSGGWTISWQGTGNRNDEFPGATSILGGIRDAVADAGGSVEFDVAGQYKTKPDVAIVVFGEEPYAEFQGDVETLEYQPDQKQDLALLKKLKDQGIPVVAVFLSGRPMWVNPELNASDAFVAAWLPGTEGGGVADVLFTDKAGKVQHDFAGKLSYSWPRTAAQTTVNRGDADYNPLFAYGYGLTYKDKSKVGTLPEESGVPAEARQNAGIYFRAGALRLPGRFL | ++ (++ = 1.1 to 6 fold improvement over control Variant No. 2) |
| 89 (protein) STAIAQEGAAPAAILHPEKWPRPATQRLIDPAVEKRVDALLKQLSVEEKVGQVIQGDIGTITPEDLRKYPLGSILAGGDSGPNGDDRAPPKEWLDLADAFYRVSLEKRPGHTPIPVLFGIDAVHGHGNIGSATIFPHNIALGATRDPELLRRIGEVTAVEMAATGIDWTFAPALSVVRDDRWGRTYEGFSEDPEIVASYSAAIVEGVQGKFGSKDFMAVGRIVASAKHFLADGGTDQGRDQGDARISEDELIRIHNAGYPPAIDAGVLTVMASFSSWQGIKHHGHKQLLTDVLKGQMGFNGFIVGDWNAHDQVPGCTKFNCPTSLIAGLDMYMAADSWKQLYENTLAQVKDGTIPMARLDDAVRRILRVKVLAGLFEKPAPKDRPGLPGLETLGSPEHRAVGREAVRKSLVLLKNDKGTLPLSPKARVLVAGDGADNIGKQSGGWTISWQGTGNRNDEFPGATSILGGIRDAVADAGGSVEFDVAGQYKTKPDVAIVVFGEEPYAEFQGDVETLEYQPDQKQDLALLKKLKDQGIPVVAVFLSGRPMWVNPELNASDAFVAAWLPGTEGGGVADVLFTDKAGKVQHDFAGKLSYSWPRTAAQTTVNRGDADYNPLFAYGYGLTYKDKSKVGTLPEESGVPAEARQNAGIYFRAGALRLPGRFL | ++ (++ = 1.1 to 6 fold improvement over control Variant No. 2) |
| 91 (protein) STAIAQEGAAPAAILHPEKWPRPATQRLIDPAVEKRVDALLKQLSVEEKVGQVIQGDIGTITPEDLRKYPLGSILAGGDSGPNGDDRAPPKEWLDLADAFYRVSLEKRPGHTPIPVLFGIDAVHGHGNIGSATIFPHNIALGMTRDPELLRRIGEVTAVEMAATGIDWTFAPALSVVRDDRWGRTYEGFSEDPEIVAAYSAAIVEGVQGKFGSKDFMAPGRIVASAKHFLADGGTDQGRDQGDARISEDELIRIHNAGYPPAIDAGVLTVMASFSSWQGIKHHGHKQLLTDVLKGQMGFNGFIVGDWNAHDQVPGCTKFNCPTSLIAGLDMYMAADSWKQLYENTLAQVKDGTIPMARLDDAVRRILRVKVLAGLFEKPAPKDRPGLPGLETLGSPEHRAVGREAVRKSLVLLKNDKGTLPLSPKARVLVAGDGADNIGKQSGGWTISWQGTGNRNDEFPGATSILGGIRDAVADAGGSVEFDVAGQYKTKPDVAIVVFGEEPYAEFQGDVETLEYQPDQKQDLALLKKLKDQGIPVVAVFLSGRPMWVNPELNASDAFVAAWLPGTEGGGVADVLFTDKAGKVQHDFAGKLSYSWPRTAAQTTVNRGDADYNPLFAYGYGLTYKDKSKVGTLPEESGVPAEARQNAGIYFRAGALRLPGRFL | +++ (+++ = 6 to 13 fold improvement over control Variant No. 2) |
| 95 (protein) STAIAQEGAAPAAILHPEKWPRPATQRLIDPAVEKRVDALLKQLSVEEKVGQVIQGDIGTITPEDLRKYPLGSILAGGNSGPNGDDRAPPKEWLDLADAFYRVSLEKRPGHTPIPVLFGIDAVHGHGNIGSATIFPHNIALGATRDPELLRRIGEVTAQEMAATGIDWTFAPALSVVRDDRWGRTYEGFSEDPEIVASYSAAIVEGVQGKYGSKDFMAPGRIVASAKHFLADGGTDQGRDQGDARISEDELIRIHNAGYPPAIDAGVLTVMASFSSWQGIKHHGHKQLLTDVLKGQMGFNGFIVGDWNAHDQVPGCTKFNCPTSLIAGLDMYMAADSWKQLYENTLAQVKDGTIPMARLDDAVRRILRVKVLAGLFEKPAPKDRPGLPGLETLGSPEHRAVGREAVRKSLVLLKNDKGTLPLSPKARVLVAGDGADNIGKQSGGWTISWQGTGNRNDEFPGATSILGGIRDAVADAGGSVEFDVAGQYKTKPDVAIVVFGEEPYAEFQGDVETLEYQPDQKQDLALLKKLKDQGIPVVAVFLSGRPMWVNPELNASDAFVAAWLPGTEGGGVADVLFTDKAGKVQHDFAGKLSYSWPRTAAQTTVNRGDADYNPLFAYGYGLTYKDKSKVGTLPEESGVPAEARQNAGIYFRAGALRLPGRFL | ++ (++ = 1.1 to 6 fold improvement over control Variant No. 2) |
| 90 (protein) STAIAQEGAAPAAILHPEKWPRPATQRLIDPAVEKRVDALLKQLSVEEKVGQVIQGDIGTITPEDLRKYPLGSILAGGDSGPNGDDRAPPKEWLDLADAFYRVSLEKRPGHTPIPVLFGIDAVHGHGNIGSATIFPHNIALGATRDPELLRRIGEVTAVEMAATGIDWTFAPALSVVRDDRWGRTYEGFSEDPEIVAAYSAAIVEGVQGKYGSKDFMAPGRIVASAKHFLADGGTDQGRDQGDARISEDELIRIHNAGYPPAIDAGVLTVMASFSSWQGIKHHGHKQLLTDVLKGQMGFNGFIVGDWNAHDQVPGCTKFNCPTSLIAGLDMYMAADSWKQLYENTLAQVKDGTIPMARLDDAVRRILRVKVLAGLFEKPAPKDRPGLPGLETLGSPEHRAVGREAVRKSLVLLKNDKGTLPLSPKARVLVAGDGADNIGKQSGGWTISWQGTGNRNDEFPGATSILGGIRDAVADAGGSVEFDVAGQYKTKPDVAIVVFGEEPYAEFQGDVETLEYQPDQKQDLALLKKLKDQGIPVVAVFLSGRPMWVNPELNASDAFVAAWLPGTEGGGVADVLFTDKAGKVQHDFAGKLSYSWPRTAAQTTVNRGDADYNPLFAYGYGLTYKDKSKVGTLPEESGVPAEARQNAGIYFRAGALRLPGRFL | ++ (++ = 1.1 to 6 fold improvement over control Variant No. 2) |
| 93 (protein) STAIAQEGAAPAAILHPEKWPRPATQRLIDPAVEKRVDALLKQLSVEEKVGQVIQGDIGTITPEDLRKYPLGSILAGGNSGPNGDDRAPPKEWLDLADAFYRVSLEKRPGHTPIPVLFGIDAVHGHGNIGSATIFPHNIALGATRDPELLRRIGEVTAVEMAATGIDWTFAPALSVVRDDRWGRTYEGFSEDPEIVAAYSAAIVEGVQGKYGSKDFMAPGRIVASAKHFLADGGTDQGRDQGDARISEDELIRIHNAGYPPAIDAGVLTVMASFSSWQGIKHHGHKQLLTDVLKGQMGFNGFIVGDWNAHDQVPGCTKFNCPTSLIAGLDMYMAADSWKQLYENTLAQVKDGTIPMARLDDAVRRILRVKVLAGLFEKPAPKDRPGLPGLETLGSPEHRAVGREAVRKSLVLLKNDKGTLPLSPKARVLVAGDGADNIGKQSGGWTISWQGTGNRNDEFPGATSILGGIRDAVADAGGSVEFDVAGQYKTKPDVAIVVFGEEPYAEFQGDVETLEYQPDQKQDLALLKKLKDQGIPVVAVFLSGRPMWVNPELNASDAFVAAWLPGTEGGGVADVLFTDKAGKVQHDFAGKLSYSWPRTAAQTTVNRGDADYNPLFAYGYGLTYKDKSKVGTLPEESGVPAEARQNAGIYFRAGALRLPGRFL | ++ (++ = 1.1 to 6 fold improvement over control Variant No. 2) |
| 92 (protein) STAIAQEGAAPAAILHPEKWPRPATQRLIDPAVEKRVDALLKQLSVEEKVGQVIQGDIGTITPEDLRKYPLGSILAGGNSGPNGDDRAPPKEWLDLADAFYRVSLEKRPGHTPIPVLFGIDAVHGHGNIGSATIFPHNIALGMTRDPELLRRIGEVTAVEMAATGIDWTFAPALSVVRDDRWGRTYEGFSEDPEIVAAYSAAIVEGVQGKFGSKDFMAPGRIVASAKHFLADGGTDQGRDQGDARISEDELIRIHNAGYPPAIDAGVLTVMASFSSWQGIKHHGHKQLLTDVLKGQMGFNGFIVGDWNAHDQVPGCTKFNCPTSLIAGLDMYMAADSWKQLYENTLAQVKDGTIPMARLDDAVRRILRVKVLAGLFEKPAPKDRPGLPGLETLGSPEHRAVGREAVRKSLVLLKNDKGTLPLSPKARVLVAGDGADNIGKQSGGWTISWQGTGNRNDEFPGATSILGGIRDAVADAGGSVEFDVAGQYKTKPDVAIVVFGEEPYAEFQGDVETLEYQPDQKQDLALLKKLKDQGIPVVAVFLSGRPMWVNPELNASDAFVAAWLPGTEGGGVADVLFTDKAGKVQHDFAGKLSYSWPRTAAQTTVNRGDADYNPLFAYGYGLTYKDKSKVGTLPEESGVPAEARQNAGIYFRAGALRLPGRFL | ++ (++ = 1.1 to 6 fold improvement over control Variant No. 2) |
